T1: human C5a (human, UniProt P01031 678-751)
T1 construct: also called hC5a; free human C5a
T1 sequence: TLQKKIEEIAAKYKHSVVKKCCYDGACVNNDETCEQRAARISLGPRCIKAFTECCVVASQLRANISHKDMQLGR

B1: 5an047 (antibody, V domains shown)
VH: EVQLQQSGPELVKPGASVRISCKASGYTFSDYYYMNWVKKSHGKSLEWIGYIFPKTGGTHYNQRFKGKATLTVDKSSSTAYMELRSLTSEDSAVYYCASGPFAYWGQGTLVTVSA
VL: EIVLTQSPAIMSASPGEKVTMTCRASSSVSSSYLHWYQQKSGASPKLWIYSTSNLASGVPARFSGSGSGTSYSLTISSVEAEDAATYYCQQYSGYPLTFGAGTKLELKR
notes: Murine
B2: 5anG12 (antibody, V domains shown)
VH: EVQLQQSGPELVKPGASVRISCKASGYTFNDYYYMNWVKQSHGKSLEWIGYIFPKTGGTHYNQRFKGKATLTVDKSSSTAYMELRSLTSEDSAVYYCASGPFAYWGQGTLVTVSA
VL: QIVLTQSPAIMSASPGEKVTMTCSASSSISYMHWYQQKPGTSPKRWIYDTSKLASGVPARFSGSGSGTSYSLTISSMEAEDAATYYCHQRSSYPWTFGGGTKLEIKR
notes: Murine
B3: 5an052 (antibody, V domains shown)
VH: EVQLQQSGPELVKPGASVRISCKASGYTFNDYYYMNWVKQSHGKSLEWIGYIFPKTGGTHYNQRFKGKATLTVDKSSSTAYMELRSLTSEDSAVYYCASGPFAYWGQGTLVTVSA
VL: QIVLTQSPAIMSASPGEKVTLTCSASSSVSSSYLYWYQQKPGSSPKLWIYSTSNLASGVPARFSGSGSGTSYSLTISTVEAEDAASYFCHQWSSYPPTFGGGTKLEIKR
notes: Murine
B4: 5anE11 (antibody, V domains shown)
VH: EVQLQQSGPELVKPGASVRISCKASGYTFSDYYYMNWVKKSHGKSLEWIGYIFPKTGGTHYNQRFKGKATLTVDKSSSTAYMELRSLTSEDSAVYYCASGPFAYWGQGTLVTVSA
VL: DIVMTQSQKFMSTSVGDRVSVTCKASQNVGTNVAWYQQKPGQSPKALIYSASYRYSGVPDRFTGSGSGTDFTLTISNVQSEDLAEYFCQQYNSYPWTFGGGTKLEIKR
notes: Murine
B5: 5an054ME (antibody, V domains shown)
VH: EVQLQQSGPELVKPGASVKISCKASGYTFTDYYYMNWVKQSHGKSLEWIGYIFPNTGGTTYNQRFKGKATLTVDKSSSTAYMELRSLTSEDSAVYYCASGPFAYWGQGTLVTVSA
VL: QIVLTQSPVIMSASPGEKVTMTCSASSSVSYMYWYQQKPGSSPRLLIYDTSNLASGVPVRFSGSGSGTSYSLTISRMEAEDAATYYCQQWSSYPPTFGAGTKLELKR
notes: Murine
B6: 5an109 (antibody, V domains shown)
VH: EVQLQQSGPELVKPGASVKISCKASGYTFSDYYYMNWVKKSHGKSLEWIGYIFPKTGGTNYNQRFKGKATLTVDKSSSTAYMELRSLTSEDSAVYYCASGPFAYWGQGTLVTVSA
VL: EIVLTQSPAIMSASPGEKVTMTCSASSSVSYMYWYQQKPGSSPRLLIYDTSNLASGVPVRFSGSGSGTSYSLTISRMEAEDAATYYCQQWSSYPPTFGGGTKLEIKR
notes: Murine
B7: 5anG10 (antibody, V domains shown)
VH: EVQLQQSGPELVKPGASVRISCKASGYTFNDYYYMNWVKQSHGKSLEWIGYIFPKTGGTHYNQRFKGKATLTVDKSSSTAYMELRSLTSEDSAVYYCASGPFAYWGQGTLVTVSA
VL: QIVLTQSPAIMSASPGEKVTMTCSASSSISYMHWYQQKPGTSPKRWIYDTSKLASGVPARFSGSGSGTSYSLTISSMEAEDAATYYCHQRRSYPWTFGGGTKLEIKR
notes: Murine
B8: 5an181 (antibody, V domains shown)
VH: EVQLQQSGPELVKPGASVKISCKASGYTFSDYYYMNWVKKSHGKSLEWIGYIFPKTGGTNYNQRFKGKATLTVDKSSSTAYMELRSLTSEDSAVYYCASGPFAYWGQGTLVTVSA
VL: EIVLTQSPAIMSASPGEKVTMTCRASSSVSSSYLHWYQQKSGASPKLWIYSTSNLASGVPARFSGSGSGTSYSLTISSVEAEDAATYYCQQYSGYPLTFGAGTKLELKR
notes: Murine
B9: 5an055 (antibody, V domains shown)
VH: EVQLQQSGPELVKPGASVKISCKASGYTFSDYYYMNWVKKSHGKSLEWIGYIFPKTGGTNYNQRFKGKATLTVDKSSSTAYMELRSLTSEDSAVYYCASGPFAYWGQGTLVTVSA
VL: EIVLTQSPAIMSASPGEKVTLTCSASSSVSSSYLYWYQQKPGSSPKLWIYSTSNLASGVPARFSGSGSGTSYSLTISSMEAEDAASYFCHQWSSYPPTFGGGTKLEIKR
notes: Murine
B10: 5an053 (antibody, V domains shown)
VH: EVQMQQSGPELVKPGASVKISCKASGYTFSDYYYMNWVKKSHGKSLEWIGYIFPKTGGTNYNQRFKGKATLTVDKSSSTAYMELRSLTSEDSAVYYCASGPFAYWGQGTLVTVSA
VL: EIVLTQSPVIMSASPGEKVTMICSASSSISYMHWYQQKPGTSPKRWIYDTSKLASGVPARFSGSGSGTSYSLTISIMEAEDAATYYCHQRSSYPWTFGGGTKLEIKR
notes: Murine
B11: 5an110ME (antibody, V domains shown)
VH: EVQLQQSGPELVKPGASVKISCKASGYTFSDYYYMNWVKKSHGKSLEWIGYIFPKTGGTNYSQRFKGKATLTVDKSSSTAYMELRSLTSEDSAVYYCASGPFAYWGQGTLVTVSA
VL: DIVMTQSQKFMSTSVGDRVSVTCKASQNVGTNVAWYQQKPGQSPKALIYSASYRYSGVPDRFTGSGSGTDFTLTISNVQSEDLAEYFCQQYNSYPFTFGSGTKLEIKR
notes: Murine
B12: 5an188ME (antibody, V domains shown)
VH: EVQLQQSGAELVKPGTSVKLSCKASGYTFTSYWMHWVKQRPGQGLEYIGEIHPSSGHTNYHEKFKSKATLTVDKSSSTAYMQLSSLTSEDSAVYYCARASLLRAYAMDYWGQGTSVTVSS
VL: DIVLTQSPASLAVSLGQRATISCRASESVDSYGNSFMHWYQQKPGQPPKLLIYLASNLESGVPARFSGSGSRTDFTLTIDPVEADDAATYYCQQNNEDPLTFGAGTKLELKR
notes: Murine
B13: 5an183 (antibody, V domains shown)
VH: EVQLQQPGSVLVRPGATVKLSCKASGFTFTSSWMHWAKQRPGQGLEWIGEIHTSGHTNYNEKFKGKATLTLDTSSSTAYVDISSLTSEDSAVYYCARGGLRRGYAMDYWGQGTSVTVSS
VL: DIVLTQSPASLAVSLGQRATISCRASESVDSYGNSFMHWYQQKPGQPPKLLIYRASNLESGIPARFSGSGSRTDFTLTINPVEADDVATYYCQQSNEDPLTFGAGTKLELKR
notes: Murine
B14: 5an185ME (antibody, V domains shown)
VH: EVQPQQSGPELVKPGSSVKISCKASGYTFTDYSMDWVKQSHGKSLEWIGAIHLNTGYTNYNQKFKGKATLTVDKSSSTAYMELRSLTSEDSAVYYCARGFYDGYSPMDYWGQGTSVTVSS
VL: DIVLTQSPASLAVSLGQRATISCRASESVDSYGNSFMHWYQQKPGQPPKLLIYRASNLESGIPARFSGSGSRTDFTLTINPVEADDVATYYCQQSNEDPLTFGAGTKLELKR
notes: Murine
B15: 5an177ME (antibody, V domains shown)
VH: EVKLVESGGGLVKPGGSLKLSCAASGITFSSYYMAWVRQTPDKRLEWVATISSGGSYTYYPDNVKGRFTISRDNAKNTLYLQMSSLKSEDTAMYYCTRYYEDDAMDYWGQGTSVTVSS
VL: EIVLTQSPAIMSASPGEKVTMTCSASSSVSYMHWYQQKSGTSPKRWIYDTSKLASGVPARFSGSGSGTSYSLTISSMEAEDAATYYCQQWSSNPLTFGAGTKLELKR
notes: Murine
B16: BNJ369 (antibody, human IgG2, kappa)
heavy: QVQLVQSGAEVKKPGASVKVSCKASGYTFTDYSMDWVRQAPGQGLEWMGAIHLNTGYTNYNQKFKGRVTMTRDTSTSTVYMELSSLRSEDTAVYYCARGFYDGYSPMDYWGQGTTVTVSSASTKGPSVFPLAPCSRSTSESTAALGCLVKDYFPEPVTVSWNSGALTSGVHTFPAVLQSSGLYSLSSVVTVPSSNFGTQTYTCNVDHKPSNTKVDKTVERKCCVECPPCPAPPVAGPSVFLFPPKPKDTLMISRTPEVTCVVVDVSQEDPEVQFNWYVDGVEVHNAKTKPREEQFNSTYRVVSVLTVLHQDWLNGKEYKCKVSNKGLPSSIEKTISKAKGQPREPQVYTLPPSQEEMTKNQVSLTCLVKGFYPSDIAVEWESNGQPENNYKTTPPVLDSDGSFFLYSRLTVDKSRWQEGNVFSCSVMHEALHNHYTQKSLSLSLGK
light: DIVMTQSPDSLAVSLGERATINCRASESVDSYGNSFMHWYQQKPGQPPKLLIYRASNLESGVPDRFSGSGSGTDFTLTISSLQAEDVAVYYCQQSNEDPYTFGGGTKVEIKRTVAAPSVFIFPPSDEQLKSGTASVVCLLNNFYPREAKVQWKVDNALQSGNSQESVTEQDSKDSTYSLSSTLTLSKADYEKHKVYACEVTHQGLSSPVTKSFNRGEC
notes: Humanized full length IgG
B17: BNJ381 (antibody, human IgG2, kappa, V domains shown)
VH: QVQLVQSGAEVKKPGASVKVSCKASGYTFTDYSMDWVRQAPGQGLEWMGAIHLNTGYTNYNQKFKGRVTMTRDTSTSTVYMELSSLRSEDTAVYYCARGFYDGYSPMDYWGQGTTVTVSS
VL: DIVMTQSPDSLAVSLGERATINCRASESVDSYGNSFMHWYQQKPGQPPKLLIYWASTRESGVPDRFSGSGSGTDFTLTISSLQAEDVAVYYCQQSNEDPYTFGGGTKVEIKR
notes: Humanized full length IgG; Light chain CDR2 is humanized

Consider 17 molecules from patent US20130224187A1 (Alexion, published 2013).

Broadly, the Kd is the concentration at which binding is half-saturated. Higher therefore signals lower affinity. The koff is a measure of how fast the partners let go of each other. Lower therefore signals a long-lived complex. As usually defined, the kon is a measure of how fast the partners come together. A low value points to slower complex formation.

The target of the first test is T1, human C5a. Briefly: ELISA. On the technique in general: In an ELISA, binding on a coated surface is turned into a signal by an enzyme label.
Turning to B1, the binding result was “binds”. Still for that read-out and setting: to B2 belongs “binds”; to B3, “binds”. As for B4, the binding result is “binds”. On the same count and under the same terms, to B5 belongs “binds”. On the same count and under the same terms, next, B6: “binds”; B7: “binds”; B8: “binds”. The same measure, in the same setting: to B9 belongs “binds”; to B10, “binds”; to B11, “binds”. With B12, the binding result is reported as “binds”. For the molecule B13, the binding result was “binds”. The same measure, in the same setting: next, B14: “binds”; B15: “binds”.

The next test has as its target T1, human C5a. Briefly: SPR (Biacore); antibody captured by anti-human Fc on CM5 chip, human C5a 0.6-5.9 nM as analyte; 1:1 Langmuir fit. As to the method:
See, e.g., Karlsson and Larsson (2004) Methods Mol Biol 248:389-415. […] The surface was regenerated with 20 mM HCl, 0.02% P20 after each cycle to remove bound antibody and antigen. The data was evaluated using Biacore BlAevaluation software using a 1:1 Langmuir Model Fit (Rmax:Global Fit; R1:Local Fit). Kinetics information such as (kₐ: Association Rate constant), (kd:Dissociation Rate constant) and KD (Equilibrium Dissociation constant) was obtained from the fit. These experiments were for screening purposes with a minimal number of analyte concentrations (3 to 4) with 1 duplicate.
On the technique in general: Surface plasmon resonance follows binding to a sensor surface in real time, without labels.
B16: binding was put at a Kd of 0.0531 nM, the koff amounted to 0.000223 s⁻¹ and the on-rate constant (kon) came to 4.19e+06 M⁻¹ s⁻¹. The corresponding values for B17 are 0.0815 nM, 0.000209 s⁻¹ and 2.57e+06 M⁻¹ s⁻¹.
